Results from publication doi:10.1101/2022.11.15.516482 (bioRxiv, 2022).

Experiments:
[1] = molecular target: Salpingoeca rosetta caveolin (F2U793) (Salpingoeca rosetta); assay: cryo-EM structure
cryo-EM structure = molecular target: the molecule itself; assay: cryo-EM structure

| Molecule | stoichiometry N [1] | stoichiometry N (cryo-EM structure) |
| --- | --- | --- |
| Salpingoeca rosetta caveolin (F2U793) (natural protein) | 11 |  |
| Strongylocentrotus purpuratus caveolin (A0A7M7T4C2) (natural protein, UniProt A0A7M7T4C2 1-159, looked up) MELIHPENGPSGTVQVPLIQGVDQSDTEDVYRLSPHVTTGFADTFKESNDIMGFSFMEKVNGAIYKYTHFAFYAVLNLLLAPFIAFSFGLSFAVMHFAVVWFVQPIMKLYYVWLRVFNLAYEPALRLVCDPIHRSIALILSGIKGQFKMNSSDVKTSQV |  | 11 |
